Here are results for six molecules from US20260049138A1 (Chugai, published 2026).

In this test the target is T1, CD3ε homodimer protein (human, UniProt P07766 23-126, limits assumed).
T1 construct: also called CD3 (CD3ε)
Nature of the test: SPR Biacore T200, CD3ε homodimer on chip. (SPR reads the build-up and loss of mass on a sensor chip optically.)
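Also: Light-chain single-residue variant antibodies injected over amine-coupled CD3ε homodimer on a CM4 chip at 25 °C, bound amount divided by that of the GLS3000-containing antibody.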

T1 sequence (P07766 23-126 limits assumed): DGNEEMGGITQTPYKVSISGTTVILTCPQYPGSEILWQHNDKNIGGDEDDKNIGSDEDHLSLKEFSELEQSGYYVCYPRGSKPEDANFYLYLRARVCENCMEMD

B1: GLS3000 G91Y one-arm antibody (antibody, human IgG1, kappa, L234A L235A, N297A, name in Kabat numbering)
heavy: QVQLVESGGGVVQPGRSLRLSCAASGFTFSNAWMHWVRQAPGKGLEWVAQIKAKSNNYATYYAESVKGRFTISRDDSKNSLYLQMNSLKTEDTAVYYCRYVHYGAYYGVDAWGQGTTVTVSSASTKGPSVFPLAPSSKSTSGGTAALGCLVKDYFPEPVTVSWNSGALTSGVHTFPAVLQSSGLYSLSSVVTVPSSSLGTQTYICNVNHKPSNTKVDKKVEPKSCDKTHTCPPCPAPEAAGGPSVFLFPPKPKDTLMISRTPEVTCVVVDVSHEDPEVKFNWYVDGVEVHNAKTKPREEQYASTYRVVSVLTVLHQDWLNGKEYKCKVSNKALPAPIEKTISKAKGQPREPQVYTLPPSRCELTKNQVSLSCAVKGFYPSDIAVEWESNGQPENNYKTTPPVLDSDGSFFLVSKLTVDKSRWQQGNVFSCSVMHEALHNHYTQKSLSLSPDYKDDDDK
chain: EPKSSDKTHTCPPCPAPELLGGPSVFLFPPKPKDTLMISRTPEVTCVVVDVSHEDPEVKFNWYVDGVEVHNAKTKPREEQYNSTYRVVSVLTVLHQDWLNGKEYKCKVSNKALPAPIEKTISKAKGQPREPQVCTLPPSRDELTKNQVSLWCLVKGFYPSDIAVEWESNGQPENNYKTTPPVLDSDGSFFLYSKLTVDKSRWQQGNVFSCSVMHEALHNRYTQKSLSLSP
light: DIVMTQSPLSLPVTPGEPASISCRSSQSLVHSNRNTYLHWYQQKPGQAPRLLIYKVSNRFSGVPDRFSGSGSGTDFTLKISRVEAEDVGVYYCGQYTQVPYTFGQGTKLEIKRTVAAPSVFIFPPSDEQLKSGTASVVCLLNNFYPREAKVQWKVDNALQSGNSQESVTEQDSKDSTYSLSSTLTLSKADYEKHKVYACEVTHQGLSSPVTKSFNRGEC
For B1, the “ratio of amount bound vs unaltered GLS3000” value (“ratio of amount bound” for short) came to 0.17.

B2: GLS3000 H27dD one-arm antibody (antibody, human IgG1, kappa, L234A L235A, N297A, name in Kabat numbering)
heavy: QVQLVESGGGVVQPGRSLRLSCAASGFTFSNAWMHWVRQAPGKGLEWVAQIKAKSNNYATYYAESVKGRFTISRDDSKNSLYLQMNSLKTEDTAVYYCRYVHYGAYYGVDAWGQGTTVTVSSASTKGPSVFPLAPSSKSTSGGTAALGCLVKDYFPEPVTVSWNSGALTSGVHTFPAVLQSSGLYSLSSVVTVPSSSLGTQTYICNVNHKPSNTKVDKKVEPKSCDKTHTCPPCPAPEAAGGPSVFLFPPKPKDTLMISRTPEVTCVVVDVSHEDPEVKFNWYVDGVEVHNAKTKPREEQYASTYRVVSVLTVLHQDWLNGKEYKCKVSNKALPAPIEKTISKAKGQPREPQVYTLPPSRCELTKNQVSLSCAVKGFYPSDIAVEWESNGQPENNYKTTPPVLDSDGSFFLVSKLTVDKSRWQQGNVFSCSVMHEALHNHYTQKSLSLSPDYKDDDDK
chain: EPKSSDKTHTCPPCPAPELLGGPSVFLFPPKPKDTLMISRTPEVTCVVVDVSHEDPEVKFNWYVDGVEVHNAKTKPREEQYNSTYRVVSVLTVLHQDWLNGKEYKCKVSNKALPAPIEKTISKAKGQPREPQVCTLPPSRDELTKNQVSLWCLVKGFYPSDIAVEWESNGQPENNYKTTPPVLDSDGSFFLYSKLTVDKSRWQQGNVFSCSVMHEALHNRYTQKSLSLSP
light: DIVMTQSPLSLPVTPGEPASISCRSSQSLVDSNRNTYLHWYQQKPGQAPRLLIYKVSNRFSGVPDRFSGSGSGTDFTLKISRVEAEDVGVYYCGQGTQVPYTFGQGTKLEIKRTVAAPSVFIFPPSDEQLKSGTASVVCLLNNFYPREAKVQWKVDNALQSGNSQESVTEQDSKDSTYSLSSTLTLSKADYEKHKVYACEVTHQGLSSPVTKSFNRGEC
B2: the “ratio of amount bound” value was determined as 0.22.

B3: GLS3000 H27dF one-arm antibody (antibody, human IgG1, kappa, L234A L235A, N297A, name in Kabat numbering)
heavy: QVQLVESGGGVVQPGRSLRLSCAASGFTFSNAWMHWVRQAPGKGLEWVAQIKAKSNNYATYYAESVKGRFTISRDDSKNSLYLQMNSLKTEDTAVYYCRYVHYGAYYGVDAWGQGTTVTVSSASTKGPSVFPLAPSSKSTSGGTAALGCLVKDYFPEPVTVSWNSGALTSGVHTFPAVLQSSGLYSLSSVVTVPSSSLGTQTYICNVNHKPSNTKVDKKVEPKSCDKTHTCPPCPAPEAAGGPSVFLFPPKPKDTLMISRTPEVTCVVVDVSHEDPEVKFNWYVDGVEVHNAKTKPREEQYASTYRVVSVLTVLHQDWLNGKEYKCKVSNKALPAPIEKTISKAKGQPREPQVYTLPPSRCELTKNQVSLSCAVKGFYPSDIAVEWESNGQPENNYKTTPPVLDSDGSFFLVSKLTVDKSRWQQGNVFSCSVMHEALHNHYTQKSLSLSPDYKDDDDK
chain: EPKSSDKTHTCPPCPAPELLGGPSVFLFPPKPKDTLMISRTPEVTCVVVDVSHEDPEVKFNWYVDGVEVHNAKTKPREEQYNSTYRVVSVLTVLHQDWLNGKEYKCKVSNKALPAPIEKTISKAKGQPREPQVCTLPPSRDELTKNQVSLWCLVKGFYPSDIAVEWESNGQPENNYKTTPPVLDSDGSFFLYSKLTVDKSRWQQGNVFSCSVMHEALHNRYTQKSLSLSP
light: DIVMTQSPLSLPVTPGEPASISCRSSQSLVFSNRNTYLHWYQQKPGQAPRLLIYKVSNRFSGVPDRFSGSGSGTDFTLKISRVEAEDVGVYYCGQGTQVPYTFGQGTKLEIKRTVAAPSVFIFPPSDEQLKSGTASVVCLLNNFYPREAKVQWKVDNALQSGNSQESVTEQDSKDSTYSLSSTLTLSKADYEKHKVYACEVTHQGLSSPVTKSFNRGEC
Consider B3, for which the “ratio of amount bound” value was found to be 0.63.

B4: GLS3000 H27dE one-arm antibody (antibody, human IgG1, kappa, L234A L235A, N297A, name in Kabat numbering)
heavy: QVQLVESGGGVVQPGRSLRLSCAASGFTFSNAWMHWVRQAPGKGLEWVAQIKAKSNNYATYYAESVKGRFTISRDDSKNSLYLQMNSLKTEDTAVYYCRYVHYGAYYGVDAWGQGTTVTVSSASTKGPSVFPLAPSSKSTSGGTAALGCLVKDYFPEPVTVSWNSGALTSGVHTFPAVLQSSGLYSLSSVVTVPSSSLGTQTYICNVNHKPSNTKVDKKVEPKSCDKTHTCPPCPAPEAAGGPSVFLFPPKPKDTLMISRTPEVTCVVVDVSHEDPEVKFNWYVDGVEVHNAKTKPREEQYASTYRVVSVLTVLHQDWLNGKEYKCKVSNKALPAPIEKTISKAKGQPREPQVYTLPPSRCELTKNQVSLSCAVKGFYPSDIAVEWESNGQPENNYKTTPPVLDSDGSFFLVSKLTVDKSRWQQGNVFSCSVMHEALHNHYTQKSLSLSPDYKDDDDK
chain: EPKSSDKTHTCPPCPAPELLGGPSVFLFPPKPKDTLMISRTPEVTCVVVDVSHEDPEVKFNWYVDGVEVHNAKTKPREEQYNSTYRVVSVLTVLHQDWLNGKEYKCKVSNKALPAPIEKTISKAKGQPREPQVCTLPPSRDELTKNQVSLWCLVKGFYPSDIAVEWESNGQPENNYKTTPPVLDSDGSFFLYSKLTVDKSRWQQGNVFSCSVMHEALHNRYTQKSLSLSP
light: DIVMTQSPLSLPVTPGEPASISCRSSQSLVESNRNTYLHWYQQKPGQAPRLLIYKVSNRFSGVPDRFSGSGSGTDFTLKISRVEAEDVGVYYCGQGTQVPYTFGQGTKLEIKRTVAAPSVFIFPPSDEQLKSGTASVVCLLNNFYPREAKVQWKVDNALQSGNSQESVTEQDSKDSTYSLSSTLTLSKADYEKHKVYACEVTHQGLSSPVTKSFNRGEC
B4: the “ratio of amount bound” value amounted to 0.23.

B5: GLS3000 H27dI one-arm antibody (antibody, human IgG1, kappa, L234A L235A, N297A, name in Kabat numbering)
heavy: QVQLVESGGGVVQPGRSLRLSCAASGFTFSNAWMHWVRQAPGKGLEWVAQIKAKSNNYATYYAESVKGRFTISRDDSKNSLYLQMNSLKTEDTAVYYCRYVHYGAYYGVDAWGQGTTVTVSSASTKGPSVFPLAPSSKSTSGGTAALGCLVKDYFPEPVTVSWNSGALTSGVHTFPAVLQSSGLYSLSSVVTVPSSSLGTQTYICNVNHKPSNTKVDKKVEPKSCDKTHTCPPCPAPEAAGGPSVFLFPPKPKDTLMISRTPEVTCVVVDVSHEDPEVKFNWYVDGVEVHNAKTKPREEQYASTYRVVSVLTVLHQDWLNGKEYKCKVSNKALPAPIEKTISKAKGQPREPQVYTLPPSRCELTKNQVSLSCAVKGFYPSDIAVEWESNGQPENNYKTTPPVLDSDGSFFLVSKLTVDKSRWQQGNVFSCSVMHEALHNHYTQKSLSLSPDYKDDDDK
chain: EPKSSDKTHTCPPCPAPELLGGPSVFLFPPKPKDTLMISRTPEVTCVVVDVSHEDPEVKFNWYVDGVEVHNAKTKPREEQYNSTYRVVSVLTVLHQDWLNGKEYKCKVSNKALPAPIEKTISKAKGQPREPQVCTLPPSRDELTKNQVSLWCLVKGFYPSDIAVEWESNGQPENNYKTTPPVLDSDGSFFLYSKLTVDKSRWQQGNVFSCSVMHEALHNRYTQKSLSLSP
light: DIVMTQSPLSLPVTPGEPASISCRSSQSLVISNRNTYLHWYQQKPGQAPRLLIYKVSNRFSGVPDRFSGSGSGTDFTLKISRVEAEDVGVYYCGQGTQVPYTFGQGTKLEIKRTVAAPSVFIFPPSDEQLKSGTASVVCLLNNFYPREAKVQWKVDNALQSGNSQESVTEQDSKDSTYSLSSTLTLSKADYEKHKVYACEVTHQGLSSPVTKSFNRGEC
With B5, the “ratio of amount bound” value was 0.26.

B6: GLS3000 H27dG one-arm antibody (antibody, human IgG1, kappa, L234A L235A, N297A, name in Kabat numbering)
heavy: QVQLVESGGGVVQPGRSLRLSCAASGFTFSNAWMHWVRQAPGKGLEWVAQIKAKSNNYATYYAESVKGRFTISRDDSKNSLYLQMNSLKTEDTAVYYCRYVHYGAYYGVDAWGQGTTVTVSSASTKGPSVFPLAPSSKSTSGGTAALGCLVKDYFPEPVTVSWNSGALTSGVHTFPAVLQSSGLYSLSSVVTVPSSSLGTQTYICNVNHKPSNTKVDKKVEPKSCDKTHTCPPCPAPEAAGGPSVFLFPPKPKDTLMISRTPEVTCVVVDVSHEDPEVKFNWYVDGVEVHNAKTKPREEQYASTYRVVSVLTVLHQDWLNGKEYKCKVSNKALPAPIEKTISKAKGQPREPQVYTLPPSRCELTKNQVSLSCAVKGFYPSDIAVEWESNGQPENNYKTTPPVLDSDGSFFLVSKLTVDKSRWQQGNVFSCSVMHEALHNHYTQKSLSLSPDYKDDDDK
chain: EPKSSDKTHTCPPCPAPELLGGPSVFLFPPKPKDTLMISRTPEVTCVVVDVSHEDPEVKFNWYVDGVEVHNAKTKPREEQYNSTYRVVSVLTVLHQDWLNGKEYKCKVSNKALPAPIEKTISKAKGQPREPQVCTLPPSRDELTKNQVSLWCLVKGFYPSDIAVEWESNGQPENNYKTTPPVLDSDGSFFLYSKLTVDKSRWQQGNVFSCSVMHEALHNRYTQKSLSLSP
light: DIVMTQSPLSLPVTPGEPASISCRSSQSLVGSNRNTYLHWYQQKPGQAPRLLIYKVSNRFSGVPDRFSGSGSGTDFTLKISRVEAEDVGVYYCGQGTQVPYTFGQGTKLEIKRTVAAPSVFIFPPSDEQLKSGTASVVCLLNNFYPREAKVQWKVDNALQSGNSQESVTEQDSKDSTYSLSSTLTLSKADYEKHKVYACEVTHQGLSSPVTKSFNRGEC
In the case of B6, the “ratio of amount bound” value was found to be 0.3.
